Laboratory results reported in patent publication US8815803B2, “Method for increasing body height comprising systemic administration of CNP-53” (priority 2004, dated 2014).
Several values for one entry are separate records, joined by “and”; a condition that tells them apart may be missing. Identical values can stand only once. Entries after “also recorded” stand apart in the source; their conditions may differ.

Legend:
Type in all cases: in vivo
[1] = CNP expression in CNP transgenic mouse: CNP-22 EIA, liver
Method: (§1) A CNP-22 EIA measuring kit (PHOENIX PHARMACEUTICALS INC.) was used for the determination of a CNP level.
(§2) Three each of 7-week old male and female CNP transgenic mice, as well as 3 each of male and female normal litter of mice, were euthanized by exsanguination from the postcava under ether anesthesia.
The liver was homogenized in a Waring blender (Physcotron), and after centrifugation (at 2,000 rpm for 5 minutes), the supernatant was used as a sample for the determination of CNP-22 levels.

[2] = CNP expression in CNP transgenic mouse: CNP-22 EIA, blood plasma
Method: as §1, §2
One mg of ethylenediaminetetraacetate-4Na (Junsei Chemical Co., Ltd., Japan) and 2 trypsin-inhibition units of aprotinin (Sigma) were added to the drawn blood and agitated to separate blood plasma, which was used as a sample for the determination of CNP-22 levels.

mice = assay: Growth curve of CNP transgenic mouse (naso-anal length)
Method: The naso-anal lengths (in cm) of female and male CNP transgenic mice, as well as those of female and male normal littermates, were measured on time over a period of 2 to 9 weeks (FIG. 4).

[3] = system: growth cartilage of femora; assay: Histological analysis of the growth cartilage of CNP transgenic mouse; details: 9-week old female CNP transgenic mice, patellar surface femur
Excerpt: For the purpose of analyzing the thickness of the growth cartilage histologically, 5 each of 9-week old female CNP transgenic mice and female normal litter of mice were euthanized by exsanguination from the postcava under ether anesthesia, and the thigh bone was fixed in 20% formalin for a week. After soaking in a 20% aqueous solution of EDTA-4Na (pH 7.4) (Junsei Chemical Co., Ltd., Japan) for decalcification, the patellar surface femur was subjected to a midline sagittal section and embedded in paraffin by conventional method to prepare a paraffin block. A 4 μm-thick section was further sectioned with a microtome to prepare paraffin sections, which were stained with hematoxylin and eosin. For the thickness of the growth cartilage, one microscopic field observed using an objective lens (×10) was incorporated into an image analysis software (IPAP, Sumika Technoservice, Japan), and each thickness of the resting layer, proliferating layer and hypertrophic layer was measured at 5 points in the microscopic field using the same software, and the calculated mean value thereof was taken as the thickness of each layer of the individual. The total of the three layers was regarded as the thickness of the growth cartilage of the individual. […]

[4] = 7-week old CNP transgenic mice, individual animal, CNP-22 EIA
[5] = CNP transgenic mouse vs wild type, means compared

Substance: CNP: C-type natriuretic peptide, a GC-B activator, overexpressed from murine CNP cDNA transgene in mice; measured with CNP-22 EIA kit
- CNP level, Liver [1, 4]: 370.0 ng/g tissue and 206.7 ng/g tissue and 293.3 ng/g tissue
- CNP level, Liver, mean ± SD ([1]; 7-week old CNP transgenic mice, mean ± SD of No. 1-3, p < 0.01 vs wild type): 290 ± 81.7 ng/g tissue
- CNP level in the liver, higher than the wild type [1, 5]: about 10 fold
- CNP level, Plasma [2, 4]: 11.1 ng/mL and 2.6 ng/mL and 10.3 ng/mL
- CNP level, Plasma, mean ± SD ([2]; 7-week old CNP transgenic mice, mean ± SD of No. 1-3): 8.0 ± 4.7 ng/mL
- CNP level in blood plasma, higher than the wild type [2, 5]: about 24 fold
- naso-anal length vs normal litter (WT) (mice; female CNP transgenic mice, at 2 weeks old and thereafter): significantly greater
- naso-anal length vs normal littermates (mice; female and male CNP transgenic mice, over a period of 2 to 9 weeks): greater than those of the normal littermates; also recorded: greater than those of the normal litter
- naso-anal length vs normal litter (WT) (mice; male CNP transgenic mice, at 4 weeks old and thereafter): significantly greater
- thickness of resting layer, proliferating layer, hypertrophic layer and total thickness of growth cartilage vs wild type [3]: greater with statistical significance; also recorded: significantly greater
